In paper PMC6120557 one finds Kd data, which are given here for 2 substances.

The target in this assay is chemokine receptor 4 (CXCR4), GFP‐tagged, on MDAMB231 X4 cells (human) (UniProt P61073). The experiment in a line: flow cytometry on cells. In general terms: In flow cytometry, cells or beads pass a laser one at a time.
UniProt P61073, sequence (P61073 whole entry): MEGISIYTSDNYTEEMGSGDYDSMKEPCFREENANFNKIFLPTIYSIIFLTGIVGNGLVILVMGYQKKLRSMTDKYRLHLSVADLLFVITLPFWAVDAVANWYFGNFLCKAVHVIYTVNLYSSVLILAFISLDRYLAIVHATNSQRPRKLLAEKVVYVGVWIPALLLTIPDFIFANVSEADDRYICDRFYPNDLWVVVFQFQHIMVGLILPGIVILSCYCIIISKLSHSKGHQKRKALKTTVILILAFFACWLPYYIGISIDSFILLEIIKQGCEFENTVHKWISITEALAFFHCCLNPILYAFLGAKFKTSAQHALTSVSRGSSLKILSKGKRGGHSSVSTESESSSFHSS

What is called Kd is the equilibrium constant for the complex coming apart. In turn, Cy5‐S‐S‐Cy3‐AcTZ14011 (peptide) showed a Kd greater than 500 nM. With N3‐Cy5‐AcTZ14011 (peptide) the figure was 222 nM.
